# Values quoted from earlier work in PMC3058932.
# What was measured:
# [1] = target: GRP receptor (Rattus norvegicus) (UniProt P52500); assay: rat brain membrane binding
# [2] = target: GRP receptor (Homo sapiens) (UniProt P30550); assay: PC-3 membrane binding
# UniProt P30550, sequence (P30550 whole entry): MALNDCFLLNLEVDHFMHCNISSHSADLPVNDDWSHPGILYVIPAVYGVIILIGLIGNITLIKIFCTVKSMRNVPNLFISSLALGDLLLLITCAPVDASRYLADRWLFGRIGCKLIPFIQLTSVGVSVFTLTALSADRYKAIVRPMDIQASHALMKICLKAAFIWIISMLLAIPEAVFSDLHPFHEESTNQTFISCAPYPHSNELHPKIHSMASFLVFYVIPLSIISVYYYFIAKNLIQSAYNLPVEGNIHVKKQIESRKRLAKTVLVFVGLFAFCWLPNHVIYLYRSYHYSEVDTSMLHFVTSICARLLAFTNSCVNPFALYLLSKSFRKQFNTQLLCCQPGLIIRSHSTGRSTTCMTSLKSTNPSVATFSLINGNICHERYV
# UniProt P52500, sequence (P52500 whole entry): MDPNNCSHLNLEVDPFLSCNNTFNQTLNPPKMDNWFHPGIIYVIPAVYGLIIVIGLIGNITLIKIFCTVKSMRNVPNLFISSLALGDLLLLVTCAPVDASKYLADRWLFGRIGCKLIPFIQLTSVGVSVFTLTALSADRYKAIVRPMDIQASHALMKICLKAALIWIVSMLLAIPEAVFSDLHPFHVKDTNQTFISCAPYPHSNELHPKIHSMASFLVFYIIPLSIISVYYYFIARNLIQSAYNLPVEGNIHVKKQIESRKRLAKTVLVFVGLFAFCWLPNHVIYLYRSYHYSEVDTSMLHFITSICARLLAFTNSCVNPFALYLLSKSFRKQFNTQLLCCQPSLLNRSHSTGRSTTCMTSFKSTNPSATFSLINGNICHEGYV
substance,measurement,setting,value
bombesin (from UniProt P84214),Ki,[1],4.3 nM
same,Ki,[2],1.7 nM
